Experimental findings from the supplement of paper PMC9170038 are described below.

The test system of data set [1] is MS2 coat protein. As to the kind of experiment: apparent KD of MS2 coat protein, switch OFF state (with FMN for OFF switches, without FMN for ON switches); designed switch direction (-1 OFF switch, 1 ON switch): -1; higher = weaker reporter binding. Conditions: FMN input: 0 or 200 uM; Eterna round: R93 (includes R88 designs). The procedure, abridged:
(§1)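 The designed RNA switches were transcribed on-chip from Illumina sequencing clusters. In 100 mM Tris-HCl pH 7.5, 80 mM KCl and 4 mM MgCl2, without or with constant ligand, they were titrated with SNAP-549-labelled MS2 coat protein from 0.7 or 1.5 nM to 3 µM in twofold steps. Apparent KD is the per-design median of normalised cluster binding-curve fits.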

In data set [2] the test system is MS2 coat protein. Put plainly: apparent KD of MS2 coat protein, switch ON state; designed switch direction (-1 OFF switch, 1 ON switch): -1; higher = weaker reporter binding. Conditions: FMN input: 0 or 200 uM; Eterna round: R93 (includes R88 designs). The method in brief:
as §1

As for “GAAAACAGAGGAUAUACAUGAGGAUCACCCAUGUAAAAAUGUAGAAGGCUGAAAGAAAGAAGAAGGAAAGAAAA [Meechl Ex3 R2 m2]”, the “apparent KD of MS2 coat protein” value amounted to 28.3 nM in the data set with MS2 coat protein [1] and 24.2 nM in the data set on MS2 coat protein [2].

Regarding “GAAAAGCAAGGAUAUACAUGAGGAUCACCCAUGUGGAAUGGCGUGACCGAAAGAAAAGGUAGAAGGUGCACGUG [Ragetia]”, the “apparent KD of MS2 coat protein” value in the data set with MS2 coat protein [1] amounted to 286 nM; in the data set on MS2 coat protein [2] it was 216 nM.

With “GAAAAGUCAGGAUAUACAGAAAAAAAAACGAAAAAAAAUCUGUAGAAGGGACAUGAGGAUCACCCAUGUAAAAA [Mat - Exclusion 4 - Mayanna - D122]”, the entries for the “apparent KD of MS2 coat protein” value with MS2 coat protein [1] and in the data set with MS2 coat protein [2] were 37.6 nM and 51.4 nM, respectively.

Consider “GAAAAGUCAGGAUAUGCAGAAAAAAAAACGAAAAAAAAACUGCAGAAGGGACAUGAGGAUCACCCAUGUUAAAA [Mat - Exclusion 4 - Mayanna - D127]”, for which the results for the “apparent KD of MS2 coat protein” value in the data set with MS2 coat protein [1] and in the data set on MS2 coat protein [2] were 31.2 nM and 41.5 nM, respectively.

Take “GAAAAGUGAGGAUAUACAUGAGGAUCACCCAUGUGUAUAAAAAAAUACACAAAAGAAAGUAGAAGGCACUAAAG [Mat - Exclusion 3 - Mayanna mod - D110]”: the “apparent KD of MS2 coat protein” value in the data set on MS2 coat protein [1] amounted to 48.7 nM; in the data set on MS2 coat protein [2], 23.1 nM.

“GAAAAGUGAGGAUAUUCGGAUAGGAAAACGAAAACCUAUCCGAAGAAGGCACAUGAGGAUCACCCAUGUGAAAG [Mat - Exaclusion 4 - Eli mod - D43]”: the “apparent KD of MS2 coat protein” value in the data set with MS2 coat protein [1] worked out at 30.9 nM; in the data set with MS2 coat protein [2] it was 28 nM.

As to “GAAAAUGGAGGAUAUACAUGAGGAUCACCCAUGUGUAAAAAAAAUUACACAAAAGAAAGUAGAAGGCCAUAAAA [Mat - Exclusion 3 - Mayanna mod - D107]”, the “apparent KD of MS2 coat protein” value with MS2 coat protein [1] came out at 174 nM; in the data set on MS2 coat protein [2], 66.4 nM.

As to “GAAAGGUCAGGAUAUACGUUAUGCUAGUGCUCGUACUAUAAGUAGAAGGGACAUGAGGAUCACCCAUGUGAUAA [Kawasakiqro]”, the “apparent KD of MS2 coat protein” value with MS2 coat protein [1] was 58.3 nM; with MS2 coat protein [2], 45.2 nM.

As to “GAAGAACAUGAGGAUCACCCAUGUCAGGAUAUGCAGAAGGGAAUAAUAACCUCUGGAAGCAGAAGGGACAAGAA [Ex 1 May 48]”, the “apparent KD of MS2 coat protein” value in the data set on MS2 coat protein [1] amounted to 59.4 nM; in the data set on MS2 coat protein [2], 33.5 nM.

For the sequence “GAAGAACAUGAGGAUCACCCAUGUGAGGAUAUACAGAAUGGAAUAAAAUAACAAGAAAGUAGAAGGCACAAGAA [Ex 1 May 39]”, the “apparent KD of MS2 coat protein” value with MS2 coat protein [1] turned out to be 38.4 nM; in the data set with MS2 coat protein [2], 32.1 nM.

In the case of “GAGGAGUCAGGAUAUCGGGAAAGGUUGAGGAAGAGAAGAAGCGAGAAGGGACAUGAGGAUCACCCAUGUAGAAG [Default title]”, the “apparent KD of MS2 coat protein” value worked out at 40.3 nM in the data set on MS2 coat protein [1] and 46.7 nM in the data set on MS2 coat protein [2].

Regarding “GAGUAAGGAGGAUAUACAUGAGGAUCACCCAUGUAAAAAGGGAAAGUAGAAAAGUAGAGUAGAAGGCCUAUAGA [JR_Exc003_Sub1702]”, the “apparent KD of MS2 coat protein” value with MS2 coat protein [1] came out at 58.3 nM; with MS2 coat protein [2] it was 70.4 nM.

For the sequence “GAUCAGCUAGGAUAUACAUUAAUCCGAUAUGAGAAGAAAGAACAUGAGGAUCACCCAUGUAGAAGGAGCCAGUA [Ridigeer]”, the “apparent KD of MS2 coat protein” value in the data set with MS2 coat protein [1] turned out to be 39.3 nM; in the data set on MS2 coat protein [2] it was 40.2 nM.

Consider “GCAUGCGAAGGAUAUACAUGAGGAUCACCCAUGUGAGAGAAAAAAGUGAGAAAGAAAAGUAGAAGGUCGUGUGG [salish99-ex3-94]”, for which the “apparent KD of MS2 coat protein” value with MS2 coat protein [1] came out at 70.9 nM; in the data set with MS2 coat protein [2], 40.7 nM.

“GCUGUCGAAGGAUAUACAUGAGGAUCACCCAUGUGAGAGAAAAAAGUGAGAAAGAAAAGUAGAAGGUCGGUAGG [salish99-ex3-97]”: the “apparent KD of MS2 coat protein” value worked out at 35.7 nM in the data set with MS2 coat protein [1] and 29.6 nM in the data set with MS2 coat protein [2].

“GGAAAACAUGAGGAUCACCCAUGUAAGGAUAUGCAAAAAAAAAAAGGAUAUAGAAGGAGCAGAAGGUACAAAGG [salish99-ex1-29]”: the “apparent KD of MS2 coat protein” value with MS2 coat protein [1] amounted to 57 nM; in the data set on MS2 coat protein [2] it was 36.2 nM.

Consider “GGAAAACAUGAGGAUCACCCAUGUAAGGAUAUGCAAAAAAGGAUAUAGAAGGAAAAAAGCAGAAGGUACAAAGG [salish99-ex1-23]”, for which the entries for the “apparent KD of MS2 coat protein” value in the data set on MS2 coat protein [1] and with MS2 coat protein [2] were 69.8 nM and 27.1 nM, respectively.

For “GGAAAGUCAGGAUAUGGAUAAUAAAUACAAAUAGAAACAAACCAGAAGGGACAUGAGGAUCACCCAUGUAAACA [Exclusion 4 Electric]”, the “apparent KD of MS2 coat protein” value was 22.6 nM with MS2 coat protein [1] and 35.3 nM in the data set on MS2 coat protein [2].

In the case of “GGAAAGUGAGGAUAUGCAUAACAAACACAAACACAAACAAAGCAGAAGGCACAUGAGGAUCACCCAUGUAAACA [Exclusion 4 Willow]”, the “apparent KD of MS2 coat protein” value in the data set on MS2 coat protein [1] amounted to 22.3 nM; in the data set with MS2 coat protein [2], 23.5 nM.

On to “GGUGGCGUAGGAUAUACAUGAGGAUCACCCAUGUGAGAGAAAAAAGUGAGAAAGAAAAGUAGAAGGACGUUACG [salish99-ex3-126]”, for which the figures for the “apparent KD of MS2 coat protein” value with MS2 coat protein [1] and in the data set on MS2 coat protein [2] were 147 nM and 40.3 nM, respectively.

As for “GGUUGGCGAGGAUAUACAUGAGGAUCACCCAUGUGAGAGAAAAUAGUGAGAAAGAAAAGUAGAAGGCGCUGACG [salish99-ex3-42]”, the “apparent KD of MS2 coat protein” value with MS2 coat protein [1] was 235 nM; with MS2 coat protein [2], 113 nM.

In the case of “GGUUGGCGAGGAUAUACAUGAGGAUCACCCAUGUGAGAGGAAAAAGUGAGGAGGAGAAGUAGAAGGCGCUGACG [salish99-ex3-22]”, the entries for the “apparent KD of MS2 coat protein” value with MS2 coat protein [1] and with MS2 coat protein [2] were 138 nM and 29.6 nM, respectively.

“GUAAACCUAGGAUAUACAUGAGGAUCACCCAUGUAAAAAAUAAUAAAAAGAAAAAAAAGUAGAAGGAGGUAGAU [JR_Exc003_Sub1226]”: the “apparent KD of MS2 coat protein” value was found to be 44 nM in the data set on MS2 coat protein [1] and 29.1 nM with MS2 coat protein [2].

As for “GUAGUGUGAGGAUAUGGAUAGAAGAAGUGAAAGUAAGAGAACUAGAAGGCACAUGAGGAUCACCCAUGUAUGUG [JR_Exc004_Sub1701]”, the “apparent KD of MS2 coat protein” value with MS2 coat protein [1] was determined as 53.3 nM; in the data set on MS2 coat protein [2] it was 41.4 nM.

As to “GUGUACAGAGGAUAUACGGGAGCUAGGAAACUAGCAACCUCACAUGAGGAUCACCCAUGUAGAAGGCUGUACAC [Ex2: 752]”, the “apparent KD of MS2 coat protein” value with MS2 coat protein [1] amounted to 799 nM; with MS2 coat protein [2], 159 nM.

As for “UAAAAACAUGAGGAUCACCCAUGUGAGGAUAUGUACGAAAUAAAUAAAAAAUAAAAGUACAGAAGGCACAAAAU [Mat - Exclusion 1 - Eli mod - D6]”, the “apparent KD of MS2 coat protein” value in the data set with MS2 coat protein [1] was found to be 52.6 nM; in the data set with MS2 coat protein [2] it was 37 nM.

For the sequence “UAAAGACAUGAGGAUCACCCAUGUGAGGAUAUAGGUGUAUGCAAAAAAAAGUUAAAAACUAGAAGGCACAGAAA [JR_Exc001_Sub305]”, the “apparent KD of MS2 coat protein” value in the data set on MS2 coat protein [1] turned out to be 42.5 nM; in the data set with MS2 coat protein [2], 66 nM.

On to “UAAAGACAUGAGGAUCACCCAUGUGAGGAUAUCGGAGAUGACGGAACAUCGAGUUCGGCGAGAAGGCGCAGGAA [JR_Exc001_Sub407]”, for which the “apparent KD of MS2 coat protein” value was 29.2 nM with MS2 coat protein [1] and 30.1 nM in the data set with MS2 coat protein [2].

Regarding “UACAGACAUGAGGAUCACCCAUGUGAGGAUAUUCAUAACGAUAUUACAAGUAUGACAGGAAGAAGGCACAGCAA [JR_Exc001_Sub010]”, the “apparent KD of MS2 coat protein” value was 47.5 nM in the data set on MS2 coat protein [1] and 45 nM in the data set on MS2 coat protein [2].

For the sequence “UAUAACGAAGGAUAUACUAACGAAACUAAUGCAUAUAUAUAACAUGAGGAUCACCCAUGUAGAAGGUCGAGAAU [JR_Exc002_Sub011]”, the “apparent KD of MS2 coat protein” value was 28.8 nM in the data set with MS2 coat protein [1] and 23.7 nM in the data set with MS2 coat protein [2].
